According to patent US20240166765A1 (ICONIC THERAPEUTICS, published 2024):
Changes are numbered by the printed parent chain. Where two headings read alike, the source gives them in different places.

How the values were obtained:
[1] = target: T1, h1-77_r (human/rat chimera); assay: live cell staining, flow cytometry
T1 construct: Human TF with ECD residues 1-77 replaced by the rat segment; on HEK293 cells

[2] = target: T2, h78-107_r.v2 (human/rat chimera); assay: live cell staining, flow cytometry
T2 construct: on HEK293 cells

[3] = target: T3, rTF (rat TF) (rat, UniProt P42533 29-252); assay: live cell staining, flow cytometry
T3 construct: Expressed on the surface of transfected HEK293 cells

[4] = target: T4, h1-107_r (human/rat chimera); assay: live cell staining, flow cytometry
T4 construct: on HEK293 cells
T4 chain: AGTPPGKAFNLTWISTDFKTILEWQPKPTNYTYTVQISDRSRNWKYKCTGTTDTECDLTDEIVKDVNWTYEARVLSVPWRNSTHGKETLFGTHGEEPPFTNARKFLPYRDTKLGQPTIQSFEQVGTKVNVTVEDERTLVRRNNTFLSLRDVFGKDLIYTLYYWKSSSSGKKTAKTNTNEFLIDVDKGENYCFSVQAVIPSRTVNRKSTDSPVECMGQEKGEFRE

[5] = target: T5, r141-194_h (rat/human chimera, UniProt P42533 29-252); assay: live cell staining, flow cytometry
T5 construct: on HEK293 cells

[6] = target: T3, rTF (rat TF); assay: live cell staining, flow cytometry; remark: listed apart in the source
[7] = target: T6, hTF_N171H_T197K (human, UniProt P13726 33-251); assay: live cell staining, flow cytometry
T6 construct: on HEK293 cells
T6 chain: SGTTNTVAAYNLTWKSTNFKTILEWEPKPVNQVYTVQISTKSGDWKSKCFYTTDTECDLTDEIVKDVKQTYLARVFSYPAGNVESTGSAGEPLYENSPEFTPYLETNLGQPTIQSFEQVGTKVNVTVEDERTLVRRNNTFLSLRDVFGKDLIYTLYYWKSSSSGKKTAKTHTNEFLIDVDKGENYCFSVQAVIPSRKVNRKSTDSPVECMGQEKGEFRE

[8] = target: T7, hTF (human, UniProt P13726 33-251); assay: live cell staining, flow cytometry
T7 construct: also called human TF; human Tissue Factor

[9] = target: T8, mouse TF ECD-His6 (mouse, UniProt P20352 29-251); assay: SPR (Biacore), antibody on chip, TF-His titrated
T8 construct: made in Expi293 cells; also called TF-His; mTF

[10] = target: T8, mouse TF ECD-His6; assay: BLI (ForteBio Octet)
[11] = target: T9, cynomolgus TF ECD-His6 (cynomolgus monkey (Macaca fascicularis)); assay: SPR (Biacore), antibody on chip, TF-His titrated
T9 construct: made in Expi293 cells; also called TF-His; cTF
T9 chain: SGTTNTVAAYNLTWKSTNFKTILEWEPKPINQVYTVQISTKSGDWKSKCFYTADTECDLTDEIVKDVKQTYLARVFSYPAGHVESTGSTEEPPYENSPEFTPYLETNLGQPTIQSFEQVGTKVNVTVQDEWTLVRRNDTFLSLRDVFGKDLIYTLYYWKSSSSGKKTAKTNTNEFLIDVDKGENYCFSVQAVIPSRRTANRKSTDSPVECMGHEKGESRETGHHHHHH

[12] = target: T10, human TF ECD-His6 (human, UniProt P13726 33-251); assay: SPR (Biacore), antibody on chip, TF-His titrated
T10 construct: made in Expi293 cells; the entry holds the ECD with the C-terminal TG-His6; also called TF-His; hTF

[13] = target: T11, hTF_N171H_T197K (human, UniProt P13726 33-251); assay: live cell staining of transfected HEK293, flow cytometry
T11 construct: the entry already holds N171H and T197K; on transfected HEK293 cells
T11 chain: T6 chain

[14] = target: rTF (rat TF) on HEK293 cells (rat, UniProt P42533 29-252); assay: as above
[15] = target: T9, cynomolgus TF ECD-His6; assay: BLI (ForteBio Octet)
[16] = target: T10, human TF ECD-His6; assay: BLI (ForteBio Octet)
[17] = target: T12, human Tissue Factor on MDA-MB-231 cells (human, UniProt P13726 33-295); assay: flow cytometry, MDA-MB-231 cells; binding of 20 nM FVII-Fc-Alexa488 (competitor) left at 9.25 nM Ab
T12 construct: also called TF; hTF

[18] = target: T12, human Tissue Factor on MDA-MB-231 cells; assay: flow cytometry, MDA-MB-231 cells; binding of 20 nM FVII-Fc-Alexa488 (competitor) left at 28 nM Ab
[19] = target: T12, human Tissue Factor on MDA-MB-231 cells; assay: cell-based or functional assay
[20] = target: T12, human Tissue Factor on MDA-MB-231 cells; assay: flow cytometry, MDA-MB-231 cells; binding of 20 nM FVII-Fc-Alexa488 (competitor) left at 250 nM Ab
[21] = target: T12, human Tissue Factor on MDA-MB-231 cells; assay: flow cytometry, MDA-MB-231 cells; binding of 20 nM FVII-Fc-Alexa488 (competitor) left at 83 nM Ab
[22] = target: T12, human Tissue Factor on MDA-MB-231 cells; assay: cell-based or functional assay; remark: listed apart in the source
[23] = target: Relipidated TF (UniProt P13726 33-295, limits assumed); assay: cell-based or functional assay

rTF (rat TF) on HEK293 cells, sequence (P42533 29-252): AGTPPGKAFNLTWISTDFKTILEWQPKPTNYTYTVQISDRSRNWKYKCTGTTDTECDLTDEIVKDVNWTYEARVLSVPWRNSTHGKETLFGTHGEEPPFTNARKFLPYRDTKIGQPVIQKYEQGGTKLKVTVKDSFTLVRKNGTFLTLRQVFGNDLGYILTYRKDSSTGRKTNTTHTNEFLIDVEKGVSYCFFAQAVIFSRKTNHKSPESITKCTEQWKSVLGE

B1: 1F (antibody, human IgG1, V domains shown)
VH: EVQLLESGGGLVQPGGSLRLSCAASGFTFSDYAMGWVRQAPGKGLEWVSTISGSGGLTYYADSVKGRFTISRDNSKNTLYLQMNSLRAEDTAVYYCAKAPYGYYMDVWGKGTTVTVSS
VL: not shown
notes: Human IgG1
[1]
  Percent antibody binding to TF construct relative to hTF: 0%
[2]
  Percent antibody binding to TF construct relative to hTF: 0%
[3]
  Percent antibody binding to TF construct relative to hTF: 0%
[4]
  Percent antibody binding to TF construct relative to hTF: 0%
[5]
  Percent antibody binding to TF construct relative to hTF: 0%
[6]
  Percent antibody binding to TF construct relative to hTF: 0%
[7]
  Percent antibody binding to TF construct relative to hTF: 83%
[8]
  Percent antibody binding to TF construct relative to hTF: 100%

B2: 43D7 (antibody, human IgG1, kappa, V domains shown)
VH: QVQLQQWGAGLLKPSETLSLTCAVYGGSLSGYYWSWIRQPPGKGLEWIGEIGASGSTRYNPSLKSRVTISVDTSKNQFSLKLSSVTAADTAVYYCARDTPYYYEGGYYYYMDVWGKGTTVTVSS
VL: EIVLTQSPGTLSLSPGERATLSCRASDSVDSSYLAWYQQKPGQAPRLLIYGAFSRANGIPDRFSGSGSGTDFTLTISRLEPEDFAVYYCQQAGVVPYTFGGGTKVEIKR
notes: human IgG1
[9]
  Kd: 21 nM
[10]
  Kd: 41.4 nM

B3: 43D8 (antibody, human IgG1, kappa, V domains shown)
VH: B2 VH
VL: B2 VL with D27Q, D30S, Y33F, F53Y, N57T
notes: human IgG1; also called 43D8 mAb; test article
[9]
  Kd: 2.4 nM
[10]
  Kd: 6.12 nM

B4: 25A3 (antibody, human IgG1, kappa, V domains shown)
VH: QVQLVQSGAEVKKPGASVKVSCKASGYTFDVYGISWVRQAPGQGLEWMGWIAPYSGNTNYAQKLQGRVTMTTDTSTSTAYMELRSLRSDDTAVYYCARDAGTYSPFGYGMDVWGQGTTVTVSS
VL: DIQMTQSPSTLSASVGDRVTITCQASQSINNWLAWYQQKPGKAPKLLIYKAYNLESGVPSRFSGSGSGTEFTLTISSLQPDDFATYYCQLFQSLPPFTFGGGTKVEIKR
notes: human IgG1
[11]
  Kd: 0.21 nM
[12]
  Kd: 0.36 nM
[13]
  binding result: no binding
[14]
  binding result: no binding (tested: 15 µg/ml (100 nM))
[15]
  Kd: 1.36 nM
[16]
  Kd: 1.67 nM
[10]
  Kd: 131 nM

B5: 29D (antibody, V domains shown)
VH: QVQLVESGGGVVQPGRSLRLSCAASGFTFHSRGMHWVRQAPGKGLEWVAVITYDGINKYYADSVEGRFTISRDNSKNTLYLQMNSLRAEDTAVYYCARDGVYYGVYDYWGQGTLVTVSS
VL: not shown
notes: Human anti-TF IgG1
[17]
  % FVIIa: 6%
[18]
  % FVIIa: 4%
[19]
  % FXa, 12.5 nM Ab: 85%
  % FXa, 25 nM Ab: 77%
  % FXa, 50 nM Ab: 75%
  % FXa, 100 nM Ab: 75%
[20]
  % FVIIa: 3%
[21]
  % FVIIa: 3%
[22]
  % IL8, 2.56 nM Ab: 27%
  % IL8, 6.4 nM Ab: 6%
  % IL8, 16 nM Ab: 2%
  % IL8, 40 nM Ab: 2%
  % IL8, 100 nM Ab: 1%

B6: 29E (antibody, human IgG1, V domains shown)
VH: B5 VH with H30R, R32Y
VL: not shown
notes: Human IgG1
[1]
  Percent antibody binding to TF construct relative to hTF: 0%
[2]
  Percent antibody binding to TF construct relative to hTF: 0%
[3]
  Percent antibody binding to TF construct relative to hTF: 0%
[4]
  Percent antibody binding to TF construct relative to hTF: 0%
[5]
  Percent antibody binding to TF construct relative to hTF: 0%
[6]
  Percent antibody binding to TF construct relative to hTF: 0%
[7]
  Percent antibody binding to TF construct relative to hTF: 98%
[8]
  Percent antibody binding to TF construct relative to hTF: 100%

B7: 29E (antibody, V domains shown)
VH: B5 VH with H30R, R32Y
VL: not shown
notes: Human anti-TF IgG1
[17]
  % FVIIa: 5%
[18]
  % FVIIa: 3%
[19]
  % FXa, 12.5 nM Ab: 81%
  % FXa, 25 nM Ab: 68%
  % FXa, 50 nM Ab: 63%
  % FXa, 100 nM Ab: 66%
[20]
  % FVIIa: 2%
[21]
  % FVIIa: 2%
[22]
  % IL8, 2.56 nM Ab: 33%
  % IL8, 6.4 nM Ab: 5%
  % IL8, 16 nM Ab: 2%
  % IL8, 40 nM Ab: 2%
  % IL8, 100 nM Ab: 2%
[23]
  TGA % ETP, 10 nM Ab, 10 min pre-incubation: 73%
  TGA % ETP, 50 nM Ab, 10 min pre-incubation: 68%
  TGA % ETP, 100 nM Ab, 10 min pre-incubation: 64%
  TGA % Peak IIa, 10 nM Ab, 10 min pre-incubation: 30%
  TGA % Peak IIa, 50 nM Ab, 10 min pre-incubation: 27%
  TGA % Peak IIa, 100 nM Ab, 10 min pre-incubation: 26%
  TGA ETP, 10 nM Ab, 10 min pre-incubation: 1250 nM·min
  TGA ETP, 50 nM Ab, 10 min pre-incubation: 1170 nM·min
  TGA ETP, 100 nM Ab, 10 min pre-incubation: 1100 nM·min
  TGA Lag Time, 10 nM Ab, 10 min pre-incubation: 10.4 min
  TGA Lag Time, 50 nM Ab, 10 min pre-incubation: 14.2 min
  TGA Lag Time, 100 nM Ab, 10 min pre-incubation: 15.1 min
  TGA Peak IIa, 10 nM Ab, 10 min pre-incubation: 78 nM
  TGA Peak IIa, 50 nM Ab, 10 min pre-incubation: 70 nM
  TGA Peak IIa, 100 nM Ab, 10 min pre-incubation: 68 nM
  TGA ttPeak, 10 nM Ab, 10 min pre-incubation: 20.2 min
  TGA ttPeak, 50 nM Ab, 10 min pre-incubation: 24.3 min
  TGA ttPeak, 100 nM Ab, 10 min pre-incubation: 25.3 min

B8: 54E (antibody, V domains shown)
VH: QVQLVQSGAEVKKPGASVKVSCKASGYTFANYYMHWVRQAPGQGLEWMGIINPSGGITVYAQKFQGRVTMTRDTSTSTVYMELSSLRSEDTAVYYCARGGSKVAALAFDIWGQGTMVTVSS
VL: DIQMTQSPSSLSASVGDRVTITCQASQDISNSLNWYQQKPGKAPKLLIYDASNLETGVPSRFSGSRSGTDFTFTISSLQPEDIATYYCQQYNFHPLTFGGGTKVEIK
notes: Human anti-TF IgG1
[17]
  % FVIIa: 11%
[18]
  % FVIIa: 3%
[19]
  % FXa, 12.5 nM Ab: 53%
  % FXa, 25 nM Ab: 44%
  % FXa, 50 nM Ab: 41%
  % FXa, 100 nM Ab: 42%
[20]
  % FVIIa: 2%
[21]
  % FVIIa: 3%
[22]
  % IL8, 2.56 nM Ab: 48%
  % IL8, 6.4 nM Ab: 8%
  % IL8, 16 nM Ab: 3%
  % IL8, 40 nM Ab: 2%
  % IL8, 100 nM Ab: 2%
